These results are taken from IntAct's records for PubMed 20505668.

B1: Isocitrate dehydrogenase kinase/phosphatase (Escherichia coli (strain K12)), P11071 (parent)
chain: MPRGLELLIAQTILQGFDAQYGRFLEVTSGAQQRFEQADWHAVQQAMKNRIHLYDHHVGLVVEQLRCITNGQSTDAAFLLRVKEHYTRLLPDYPRFEIAESFFNSVYCRLFDHRSLTPERLFIFSSQPERRFRTIPRPLAKDFHPDHGWESLLMRVISDLPLRLRWQNKSRDIHYIIRHLTETLGTDNLAESHLQVANELFYRNKAAWLVGKLITPSGTLPFLLPIHQTDDGELFIDTCLTTTAEASIVFGFARSYFMVYAPLPAALVEWLREILPGKTTAELYMAIGCQKHAKTESYREYLVYLQGCNEQFIEAPGIRGMVMLVFTLPGFDRVFKVIKDRFAPQKEMSAAHVRACYQLVKEHDRVGRMADTQEFENFVLEKRHISPALMELLLQEAAEKITDLGEQIVIRHLYIERRMVPLNIWLEQVEGQQLRDAIEEYGNAIRQLAAANIFPGDMLFKNFGVTRHGRVVFYDYDEICYMTEVNFRDIPPPRYPEDELASEPWYSVSPGDVFPEEFRHWLCADPRIGPLFEEMHADLFRADYWRALQNRIREGHVEDVYAYRRRQRFSVRYGEMLF
partner: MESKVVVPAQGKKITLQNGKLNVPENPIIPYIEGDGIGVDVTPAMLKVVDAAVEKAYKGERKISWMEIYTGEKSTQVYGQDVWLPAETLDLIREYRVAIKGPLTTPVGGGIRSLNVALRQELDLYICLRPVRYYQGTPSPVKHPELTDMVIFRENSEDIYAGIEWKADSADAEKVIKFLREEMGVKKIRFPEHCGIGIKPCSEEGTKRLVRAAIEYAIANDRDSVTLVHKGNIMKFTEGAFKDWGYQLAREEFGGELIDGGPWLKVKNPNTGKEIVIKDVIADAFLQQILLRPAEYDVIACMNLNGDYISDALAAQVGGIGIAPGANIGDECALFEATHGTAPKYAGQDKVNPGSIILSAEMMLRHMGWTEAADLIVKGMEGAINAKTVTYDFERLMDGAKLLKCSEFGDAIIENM

Variants of B1 are the subject of one experiment. The note with it: with idh_ecoli icd.
Take MPRGLELLIAQTILQGFDAQYGRFLEVTSGAQQRFEQADWHAVQQAMKNRIHLYDHHVGLVVEQLRCITNGQSTDAAFLLRVKEHYTRLLPDYPRFEIAESFFNSVYCRLFDHRSLTPERLFIFSSQPERRFRTIPRPLAKDFHPDHGWESLLMRVISDLPLRLRWQNKSRDIHYIIRHLTETLGTDNLAESHLQVANELFYRNKAAWLVGKLITPSGTLPFLLPIHQTDDGELFIDTCLTTTAEASIVFGFARSYFMVYAPLPAALVEWLREILPGKTTAELYMAIGCQKHAKTESYREYLVYLQGCNEQFIEAPGIRGMVMLVFTLPGFDRVFKVIKDRFAPQKEMSAAHVRACYQLVKEHDRVGRMADTQEFENFVLEKRHISPALMELLLQEAAEKITDLGEQIVIRHLYIERRMVPLNIWLEQVEGQQLRDAIEEYGNAIRQLAAANIFPGDMLFKNFGVTRHGRVVFYDYAEICYMTEVNFRDIPPPRYPEDELASEPWYSVSPGDVFPEEFRHWLCADPRIGPLFEEMHADLFRADYWRALQNRIREGHVEDVYAYRRRQRFSVRYGEMLF [D477A]: the “effect of a mutation on the interaction” value was “disrupting interaction”.
Turning to MPRGLELLIAQTILQGFDAQYGRFLEVTSGAQQRFEQADWHAVQQAMKNRIHLYDHHVGLVVEQLRCITNGQSTDAAFLLRVKEHYTRLLPDYPRFEIAESFFNSVYCRLFDHRSLTPERLFIFSSQPERRFRTIPRPLAKDFHPDHGWESLLMRVISDLPLRLRWQNKSRDIHYIIRHLTETLGTDNLAESHLQVANELFYRNKAAWLVGKLITPSGTLPFLLPIHQTDDGELFIDTCLTTTAEASIVFGFARSYFMVYAPLPAALVEWLREILPGKTTAELYMAIGCQKHAKTESYREYLVYLQGCNEQFIEAPGIRGMVMLVFTLPGFDRVFKVIKDRFAPQEEMSAAHVRACYQLVKEHDRVGRMADTQEFENFVLEKRHISPALMELLLQEAAEKITDLGEQIVIRHLYIERRMVPLNIWLEQVEGQQLRDAIEEYGNAIRQLAAANIFPGDMLFKNFGVTRHGRVVFYDYDEICYMTEVNFRDIPPPRYPEDELASEPWYSVSPGDVFPEEFRHWLCADPRIGPLFEEMHADLFRADYWRALQNRIREGHVEDVYAYRRRQRFSVRYGEMLF [K346E], the “effect of a mutation on the interaction” value was “disrupting interaction”.

In a further experiment the parent is B1. Conditions: with idh_ecoli icd. This is another data set of the same source.
As for MPRGLELLIAQTILQGFDAQYGRFLEVTSGAQQRFEQADWHAVQQAMKNRIHLYDHHVGLVVEQLRCITNGQSTDAAFLLRVKEHYTRLLPDYPRFEIAESFFNSVYCRLFDHRSLTPERLFIFSSQPERRFRTIPRPLAKDFHPDHGWESLLMRVISDLPLRLRWQNKSRDIHYIIRHLTETLGTDNLAESHLQVANELFYRNKAAWLVGKLITPSGTLPFLLPIHQTDDGELFIDTCLTTTAEASIVFGFARSYFMVYAPLPAALVEWLREILPGKTTAELYMAIGCQKHAKTESYREYLVYLQGCNEQFIEAPGIRGMVMLVFTLPGFDRVFKVIKDRFAPQKEMSAAHVRACYQLVKEHDRVGRMADTQEFENFVLEKRHISPALMELLLQEAAEKITDLGEQIVIRHLYIERRMVPLNIWLEQVEGQQLRDAIEEYGNAIRQLAAANIFPGDMLFKAFGVTRHGRVVFYDYDEICYMTEVNFRDIPPPRYPEDELASEPWYSVSPGDVFPEEFRHWLCADPRIGPLFEEMHADLFRADYWRALQNRIREGHVEDVYAYRRRQRFSVRYGEMLF [N462A], the “effect of a mutation on the interaction” value was “disrupting interaction”.
Consider MPRGLELLIAQTILQGFDAQYGRFLEVTSGAQQRFEQADWHAVQQAMKNRIHLYDHHVGLVVEQLRCITNGQSTDAAFLLRVKEHYTRLLPDYPRFEIAESFFNSVYCRLFDHRSLTPERLFIFSSQPERRFRTIPRPLAKDFHPDHGWESLLMRVISDLPLRLRWQNKSRDIHYIIRHLTETLGTDNLAESHLQVANELFYRNKAAWLVGKLITPSGTLPFLLPIHQTDDGELFIDTCLTTTAEASIVFGFARSYFMVYAPLPAALVEWLREILPGKTTAELYMAIGCQKHAKTESYREYLVYLQGCNEQFIEAPGIRGMVMLVFTLPGFDRVFKVIKDRFAPQKEMSAAHVRACYQLVKEHDRVGRMADTQEFENFVLEKRHISPALMELLLQEAAEKITDLGEQIVIRHLYIERRMVPLNIWLEQVEGQQLRDAIEEYGNAIRQLAAANIFPGDMLFKNFGVTRHGRVVFYDYDEICYMTEVNFRDIPPPRYPKDKLASEPWYSVSPGDVFPEEFRHWLCADPRIGPLFEEMHADLFRADYWRALQNRIREGHVEDVYAYRRRQRFSVRYGEMLF [E497K;E499K], for which the “effect of a mutation on the interaction” value was “disrupting interaction”.
With MPRGLELLIAQTILQGFDAQYGRFLEVTSGAQQRFEQADWHAVQQAMKNRIHLYDHHVGLVVEQLRCITNGQSTDAAFLLRVKEHYTRLLPDYPRFEIAESFFNSVYCRLFDHRSLTPERLFIFSSQPERRFRTIPRPLAKDFHPDHGWESLLMRVISDLPLRLRWQNKSRDIHYIIRHLTETLGTDNLAESHLQVANELFYRNKAAWLVGKLITPSGTLPFLLPIHQTDDGELFIDTCLTTTAEASIVFGFARSYFMVYAPLPAALVEWLREILPGKTTAELYMAIGCQKHAKTESYREYLVYLQGCNEQFIEAPGIRGMVMLVFTLPGFDRVFAVIKDRFAPQKEMSAAHVRACYQLVKEHDRVGRMADTQEFENFVLEKRHISPALMELLLQEAAEKITDLGEQIVIRHLYIERRMVPLNIWLEQVEGQQLRDAIEEYGNAIRQLAAANIFPGDMLFKNFGVTRHGRVVFYDYDEICYMTEVNFRDIPPPRYPEDELASEPWYSVSPGDVFPEEFRHWLCADPRIGPLFEEMHADLFRADYWRALQNRIREGHVEDVYAYRRRQRFSVRYGEMLF [K336A], the “effect of a mutation on the interaction” value is on record as “disrupting interaction”.
Consider MPRGLELLIAQTILQGFDAQYGRFLEVTSGAQQRFEQADWHAVQQAMKNRIHLYDHHVGLVVEQLRCITNGQSTDAAFLLRVKEHYTRLLPDYPRFEIAESFFNSVYCRLFDHRSLTPERLFIFSSQPERRFRTIPRPLAKDFHPDHGWESLLMRVISDLPLRLRWQNKSRDIHYIIRHLTETLGTDNLAESHLQVANELFYRNKAAWLVGKLITPSGTLPFLLPIHQTDDGELFIDTCLTTTAEASIVFGFARSYFMVYAPLPAALVEWLREILPGKTTAELYMAIGCQKHAKTESYREYLVYLQGCNEQFIEAPGIRGMVMLVFTLPGFDRVFKVIKDRFAPQKEMSAAHVRACYQLVKEHDRVGRMADTQEFENFVLEKRHISPALMELLLQEAAEKITDLGEQIVIRHLYIERRMVPLNIWLEQVEGQQLRDAIEEYGNAIRQLAAANIFPGDMLFKNFGVTRHGRVVFYAYDEICYMTEVNFRDIPPPRYPEDELASEPWYSVSPGDVFPEEFRHWLCADPRIGPLFEEMHADLFRADYWRALQNRIREGHVEDVYAYRRRQRFSVRYGEMLF [D475A], for which the “effect of a mutation on the interaction” value is “disrupting interaction”.
